Reference: patent US20200306373A1 (Hoffmann-La Roche, published 2020)

T1: human ICOS (human, UniProt Q9Y6W8 21-199)
T1 sequence: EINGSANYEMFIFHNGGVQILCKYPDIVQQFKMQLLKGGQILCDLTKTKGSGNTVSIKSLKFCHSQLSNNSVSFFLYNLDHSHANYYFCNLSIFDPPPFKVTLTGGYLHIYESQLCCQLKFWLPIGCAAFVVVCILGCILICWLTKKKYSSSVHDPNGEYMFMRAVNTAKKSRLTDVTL


Assays:
human ICOS [1] = target: T1, human ICOS; assay: cell-based or functional assay
human ICOS [2] = target: T1, human ICOS; assay: flow cytometry, activated human PBMCs, ICOS on CD4+ T cells
[3] = target: T2, human fibroblast activating protein (huFAP) (human, UniProt Q12884 1-760); assay: flow cytometry on NIH/3T3-huFAP clone 19 cells (human FAP), PE anti-human secondary, median fluorescence intensity
T2 construct: Expressed on NIH/3T3-huFAP clone 19 cells; also called human FAP; hFAP
Protocol: (§1) This cell line was generated by the transfection of the mouse embryonic fibroblast NIH/3T3 cell line (ATCC CRL-1658) with the expression vector pETR4921 to express huFAP under […] Puromycin selection.
(§2) The staining was fixed for 20 min at 4° C. in the dark, using 75 μl of 1% PFA in FACS buffer per well. Fluorescence was analyzed by FACS using a FACS Fortessa (Software FACS Diva). Binding curves were obtained using GraphPadPrism6 and are shown in FIGS. 6A-6C and 7A-7B, respectively.

[4] = target: T2, human fibroblast activating protein …; assay: flow cytometry on NIH/3T3-huFAP clone 19 cells
Protocol: as §1, §2

human ICOS [5] = target: T1, human ICOS; assay: flow cytometry, activated human PBMCs, ICOS on CD8+ T cells

Fold increase vs TCB only at 200 pM CEA-ICOS (% CD69^+CD4^+), Donor 1 (D1) (human ICOS [1]) [fold]	Fold increase vs TCB only at 200 pM CEA-ICOS (% CD69^+CD4^+), Donor 2 (D2) (human ICOS [1]) [fold]	Fold increase vs TCB only at 1000 pM CEA-ICOS (% CD69^+CD4^+), Donor 1 (D1) (human ICOS [1]) [fold]	Fold increase vs TCB only at 1000 pM CEA-ICOS (% CD69^+CD4^+), Donor 2 (D2) (human ICOS [1]) [fold]	EC50 (human ICOS [2]) [nM]	EC50 (read off the curve) [3] [nM]	EC50 [4] [nM]	EC50 (human ICOS [5]) [nM]	binding result [3]	Binder
2.5	1.5	2.65	1.68	34.9	~3	2.98	50.7	–	FAP-ICOS_1+1, huIgG1 P329G LALA, monovalent ICOS (JMAb136), monovalent FAP (4B9) (bispecific antibody, also called ICOS-FAP 1+1; ICOS(JMab136)-FAP(4B9) 1 + 1) heavy 1: not shown light 1: DIQMTQSPSSVSASVGDRVTITCRASQGISRLLAWYQQKPGKAPKLLIYVASSLQSGVPSRFSGSGSGTDFTLTISSLQPEDFATYYCQQANSFPWTFGQGTKVEIKRTVAAPSVFIFPPSDRKLKSGTASVVCLLNNFYPREAKVQWKVDNALQSGNSQESVTEQDSKDSTYSLSSTLTLSKADYEKHKVYACEVTHQGLSSPVTKSFNRGEC heavy 2: EIVLTQSPGTLSLSPGERATLSCRASQSVTSSYLAWYQQKPGQAPRLLINVGSRRATGIPDRFSGSGSGTDFTLTISRLEPEDFAVYYCQQGIMLPPTFGQGTKVEIKSSASTKGPSVFPLAPSSKSTSGGTAALGCLVKDYFPEPVTVSWNSGALTSGVHTFPAVLQSSGLYSLSSVVTVPSSSLGTQTYICNVNHKPSNTKVDKKVEPKSCDKTHTCPPCPAPEAAGGPSVFLFPPKPKDTLMISRTPEVTCVVVDVSHEDPEVKFNWYVDGVEVHNAKTKPREEQYNSTYRVVSVLTVLHQDWLNGKEYKCKVSNKALGAPIEKTISKAKGQPREPQVCTLPPSRDELTKNQVSLSCAVKGFYPSDIAVEWESNGQPENNYKTTPPVLDSDGSFFLVSKLTVDKSRWQQGNVFSCSVMHEALHNHYTQKSLSLSP light 2: EVQLLESGGGLVQPGGSLRLSCAASGFTFSSYAMSWVRQAPGKGLEWVSAIIGSGASTYYADSVKGRFTISRDNSKNTLYLQMNSLRAEDTAVYYCAKGWFGGFNYWGQGTLVTVSSASVAAPSVFIFPPSDEQLKSGTASVVCLLNNFYPREAKVQWKVDNALQSGNSQESVTEQDSKDSTYSLSSTLTLSKADYEKHKVYACEVTHQGLSSPVTKSFNRGEC
–	–	–	–	9.99	–	–	12.4	no binding (tested: about 120000 pM)	DP47-ICOS_2+1, huIgG1 P329G LALA, bivalent ICOS (JMAb136), monovalent DP47 (bispecific antibody, Untargeted control, human IgG1 P329G LALA, bivalent for ICOS; also called ICOS-DP47 control molecule; untargeted DP47-ICOS) heavy 1: not shown heavy 2: not shown light: DIQMTQSPSSVSASVGDRVTITCRASQGISRLLAWYQQKPGKAPKLLIYVASSLQSGVPSRFSGSGSGTDFTLTISSLQPEDFATYYCQQANSFPWTFGQGTKVEIKRTVAAPSVFIFPPSDRKLKSGTASVVCLLNNFYPREAKVQWKVDNALQSGNSQESVTEQDSKDSTYSLSSTLTLSKADYEKHKVYACEVTHQGLSSPVTKSFNRGEC
–	–	–	–	42.6	–	6.73	56.4	–	FAP-ICOS_1+1_HT, huIgG1 P329G LALA, monovalent ICOS (JMAb136), monovalent FAP (4B9) c-terminal fused of the heavy chain C region (bispecific antibody, Human IgG1 P329G LALA, knob-into-hole; 4B9 VH and VL fused to the C-termini of the two Fc chains; also called ICOS-FAP 1+1 HT; 1+1 head-to-tail) heavy 1: not shown heavy 2: DKTHTCPPCPAPEAAGGPSVFLFPPKPKDTLMISRTPEVTCVVVDVSHEDPEVKFNWYVDGVEVHNAKTKPREEQYNSTYRVVSVLTVLHQDWLNGKEYKCKVSNKALGAPIEKTISKAKGQPREPQVCTLPPSRDELTKNQVSLSCAVKGFYPSDIAVEWESNGQPENNYKTTPPVLDSDGSFFLVSKLTVDKSRWQQGNVFSCSVMHEALHNHYTQKSLSLSPGGGGGSGGGGSGGGGSGGGGSEIVLTQSPGTLSLSPGERATLSCRASQSVTSSYLAWYQQKPGQAPRLLINVGSRRATGIPDRFSGSGSGTDFTLTISRLEPEDFAVYYCQQGIMLPPTFGQGTKVEIK light: DIQMTQSPSSVSASVGDRVTITCRASQGISRLLAWYQQKPGKAPKLLIYVASSLQSGVPSRFSGSGSGTDFTLTISSLQPEDFATYYCQQANSFPWTFGQGTKVEIKRTVAAPSVFIFPPSDRKLKSGTASVVCLLNNFYPREAKVQWKVDNALQSGNSQESVTEQDSKDSTYSLSSTLTLSKADYEKHKVYACEVTHQGLSSPVTKSFNRGEC
